Data as given in US20210139548A1 (published 2021).
*1 amine or outer side, *2 acyl side, *3 side chain or, on linkers, in order; H or OH if unused. Side-chain parts run from the residue outwards. The star is where a group is joined. C18 diacid = O=C(O)CCCCCCCCCCCCCCCCC(=O)*; γGlu = O=C(O)[C@H](CCC(=O)[*:2])N[*:1]; Isovaleryl = CC(C)CC(=O)*; AEEA = NCCOCCOCC(=O)O

Molecular target: T1, human neuropeptide Y2 receptor (human, UniProt P49146 1-381)
T1 construct: whole, on cells; also called hNPY2 receptor; hNPY2-R
T1 sequence (looked up): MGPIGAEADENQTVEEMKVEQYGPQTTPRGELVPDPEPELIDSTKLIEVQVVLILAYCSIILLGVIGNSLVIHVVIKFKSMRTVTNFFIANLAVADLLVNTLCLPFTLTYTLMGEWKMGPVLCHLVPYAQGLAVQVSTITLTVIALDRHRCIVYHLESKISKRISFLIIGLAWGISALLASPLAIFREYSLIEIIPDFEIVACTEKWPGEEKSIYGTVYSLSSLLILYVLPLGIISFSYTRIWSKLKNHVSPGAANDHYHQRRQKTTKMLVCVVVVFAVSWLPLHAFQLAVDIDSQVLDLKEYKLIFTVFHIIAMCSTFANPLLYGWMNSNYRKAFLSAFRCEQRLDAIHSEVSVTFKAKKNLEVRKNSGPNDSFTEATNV
Assay: radioligand competition (125I-PYY(1-36)), hNPY2R membranes
In short: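 Commercial human Y2 receptor membranes (0.5 μg protein/well) were incubated with peptide for 2 h at room temperature in 50 mM HEPES, 5 mM MgCl₂, 1 mM CaCl₂, pH 7.4, with 0.2% ovalbumin. Bound radioligand was separated on PEI-soaked GF/C filters and counted by scintillation, and IC₅₀ came from nonlinear sigmoidal regression.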

Row | Binder | Ki [nM]
1 | Isovaleryl-APEK([AEEA-AEEA-γGlu-C18 diacid])PEEDASPEEIQRYEVSLRHYYNWLTRQRY-NH2 (SMILES CC[C@H](C)[C@H](NC(=O)[C@H](CCC(=O)O)NC(=O)[C@H](CCC(=O)O)NC(=O)[C@@H]1CCCN1C(=O)[C@H](CO)NC(=O)[C@H](C)NC(=O)[C@H](CC(=O)O)NC(=O)[C@H](CCC(=O)O)NC(=O)[C@H](CCC(=O)O)NC(=O)[C@@H]1CCCN1C(=O)[C@H](CCCCNC(=O)COCCOCCNC(=O)COCCOCCNC(=O)CC[C@H](NC(=O)CCCCCCCCCCCCCCCCC(=O)O)C(=O)O)NC(=O)[C@H](CCC(=O)O)NC(=O)[C@@H]1CCCN1C(=O)[C@H](C)NC(=O)CC(C)C)C(=O)N[C@@H](CCC(N)=O)C(=O)N[C@@H](CCCNC(=N)N)C(=O)N[C@@H](Cc1ccc(O)cc1)C(=O)N[C@@H](CCC(=O)O)C(=O)N[C@H](C(=O)N[C@@H](CO)C(=O)N[C@@H](CC(C)C)C(=O)N[C@@H](CCCNC(=N)N)C(=O)N[C@@H](Cc1c[nH]cn1)C(=O)N[C@@H](Cc1ccc(O)cc1)C(=O)N[C@@H](Cc1ccc(O)cc1)C(=O)N[C@@H](CC(N)=O)C(=O)N[C@@H](Cc1c[nH]c2ccccc12)C(=O)N[C@@H](CC(C)C)C(=O)N[C@H](C(=O)N[C@@H](CCCNC(=N)N)C(=O)N[C@@H](CCC(N)=O)C(=O)N[C@@H](CCCNC(=N)N)C(=O)N[C@@H](Cc1ccc(O)cc1)C(N)=O)[C@@H](C)O)C(C)C) [Compound 15] | 2.89
2 | Isovaleryl-APEK([AEEA-AEEA-γGlu-C18 diacid])PEEDASPAELQRYYVSLRHYYNWLTRQRY-NH2 (SMILES CC(C)CC(=O)N[C@@H](C)C(=O)N1CCC[C@H]1C(=O)N[C@@H](CCC(=O)O)C(=O)N[C@@H](CCCCNC(=O)COCCOCCNC(=O)COCCOCCNC(=O)CC[C@H](NC(=O)CCCCCCCCCCCCCCCCC(=O)O)C(=O)O)C(=O)N1CCC[C@H]1C(=O)N[C@@H](CCC(=O)O)C(=O)N[C@@H](CCC(=O)O)C(=O)N[C@@H](CC(=O)O)C(=O)N[C@@H](C)C(=O)N[C@@H](CO)C(=O)N1CCC[C@H]1C(=O)N[C@@H](C)C(=O)N[C@@H](CCC(=O)O)C(=O)N[C@@H](CC(C)C)C(=O)N[C@@H](CCC(N)=O)C(=O)N[C@@H](CCCNC(=N)N)C(=O)N[C@@H](Cc1ccc(O)cc1)C(=O)N[C@@H](Cc1ccc(O)cc1)C(=O)N[C@H](C(=O)N[C@@H](CO)C(=O)N[C@@H](CC(C)C)C(=O)N[C@@H](CCCNC(=N)N)C(=O)N[C@@H](Cc1c[nH]cn1)C(=O)N[C@@H](Cc1ccc(O)cc1)C(=O)N[C@@H](Cc1ccc(O)cc1)C(=O)N[C@@H](CC(N)=O)C(=O)N[C@@H](Cc1c[nH]c2ccccc12)C(=O)N[C@@H](CC(C)C)C(=O)N[C@H](C(=O)N[C@@H](CCCNC(=N)N)C(=O)N[C@@H](CCC(N)=O)C(=O)N[C@@H](CCCNC(=N)N)C(=O)N[C@@H](Cc1ccc(O)cc1)C(N)=O)[C@@H](C)O)C(C)C) [Compound 17] | 0.93
3 | Isovaleryl-APEK([AEEA-AEEA-γGlu-C18 diacid])PEEDASPEETQRYYVTLRHYYNWLTRQRY-NH2 (SMILES CC(C)CC(=O)N[C@@H](C)C(=O)N1CCC[C@H]1C(=O)N[C@@H](CCC(=O)O)C(=O)N[C@@H](CCCCNC(=O)COCCOCCNC(=O)COCCOCCNC(=O)CC[C@H](NC(=O)CCCCCCCCCCCCCCCCC(=O)O)C(=O)O)C(=O)N1CCC[C@H]1C(=O)N[C@@H](CCC(=O)O)C(=O)N[C@@H](CCC(=O)O)C(=O)N[C@@H](CC(=O)O)C(=O)N[C@@H](C)C(=O)N[C@@H](CO)C(=O)N1CCC[C@H]1C(=O)N[C@@H](CCC(=O)O)C(=O)N[C@@H](CCC(=O)O)C(=O)N[C@H](C(=O)N[C@@H](CCC(N)=O)C(=O)N[C@@H](CCCNC(=N)N)C(=O)N[C@@H](Cc1ccc(O)cc1)C(=O)N[C@@H](Cc1ccc(O)cc1)C(=O)N[C@H](C(=O)N[C@H](C(=O)N[C@@H](CC(C)C)C(=O)N[C@@H](CCCNC(=N)N)C(=O)N[C@@H](Cc1c[nH]cn1)C(=O)N[C@@H](Cc1ccc(O)cc1)C(=O)N[C@@H](Cc1ccc(O)cc1)C(=O)N[C@@H](CC(N)=O)C(=O)N[C@@H](Cc1c[nH]c2ccccc12)C(=O)N[C@@H](CC(C)C)C(=O)N[C@H](C(=O)N[C@@H](CCCNC(=N)N)C(=O)N[C@@H](CCC(N)=O)C(=O)N[C@@H](CCCNC(=N)N)C(=O)N[C@@H](Cc1ccc(O)cc1)C(N)=O)[C@@H](C)O)[C@@H](C)O)C(C)C)[C@@H](C)O) [Compound 16] | 3.09
4 | Isovaleryl-APEK([AEEA-AEEA-γGlu-C18 diacid])PEEDAAPEELQRYYVELRHYYNWLTRQRY-NH2 (SMILES CC(C)CC(=O)N[C@@H](C)C(=O)N1CCC[C@H]1C(=O)N[C@@H](CCC(=O)O)C(=O)N[C@@H](CCCCNC(=O)COCCOCCNC(=O)COCCOCCNC(=O)CC[C@H](NC(=O)CCCCCCCCCCCCCCCCC(=O)O)C(=O)O)C(=O)N1CCC[C@H]1C(=O)N[C@@H](CCC(=O)O)C(=O)N[C@@H](CCC(=O)O)C(=O)N[C@@H](CC(=O)O)C(=O)N[C@@H](C)C(=O)N[C@@H](C)C(=O)N1CCC[C@H]1C(=O)N[C@@H](CCC(=O)O)C(=O)N[C@@H](CCC(=O)O)C(=O)N[C@@H](CC(C)C)C(=O)N[C@@H](CCC(N)=O)C(=O)N[C@@H](CCCNC(=N)N)C(=O)N[C@@H](Cc1ccc(O)cc1)C(=O)N[C@@H](Cc1ccc(O)cc1)C(=O)N[C@H](C(=O)N[C@@H](CCC(=O)O)C(=O)N[C@@H](CC(C)C)C(=O)N[C@@H](CCCNC(=N)N)C(=O)N[C@@H](Cc1c[nH]cn1)C(=O)N[C@@H](Cc1ccc(O)cc1)C(=O)N[C@@H](Cc1ccc(O)cc1)C(=O)N[C@@H](CC(N)=O)C(=O)N[C@@H](Cc1c[nH]c2ccccc12)C(=O)N[C@@H](CC(C)C)C(=O)N[C@H](C(=O)N[C@@H](CCCNC(=N)N)C(=O)N[C@@H](CCC(N)=O)C(=O)N[C@@H](CCCNC(=N)N)C(=O)N[C@@H](Cc1ccc(O)cc1)C(N)=O)[C@@H](C)O)C(C)C) [Compound 20] | 2.57
5 | Isovaleryl-APEK([AEEA-AEEA-γGlu-C18 diacid])PEADASPEELQQYYVSLRHYYNWLTRQRY-NH2 (SMILES CC(C)CC(=O)N[C@@H](C)C(=O)N1CCC[C@H]1C(=O)N[C@@H](CCC(=O)O)C(=O)N[C@@H](CCCCNC(=O)COCCOCCNC(=O)COCCOCCNC(=O)CC[C@H](NC(=O)CCCCCCCCCCCCCCCCC(=O)O)C(=O)O)C(=O)N1CCC[C@H]1C(=O)N[C@@H](CCC(=O)O)C(=O)N[C@@H](C)C(=O)N[C@@H](CC(=O)O)C(=O)N[C@@H](C)C(=O)N[C@@H](CO)C(=O)N1CCC[C@H]1C(=O)N[C@@H](CCC(=O)O)C(=O)N[C@@H](CCC(=O)O)C(=O)N[C@@H](CC(C)C)C(=O)N[C@@H](CCC(N)=O)C(=O)N[C@@H](CCC(N)=O)C(=O)N[C@@H](Cc1ccc(O)cc1)C(=O)N[C@@H](Cc1ccc(O)cc1)C(=O)N[C@H](C(=O)N[C@@H](CO)C(=O)N[C@@H](CC(C)C)C(=O)N[C@@H](CCCNC(=N)N)C(=O)N[C@@H](Cc1c[nH]cn1)C(=O)N[C@@H](Cc1ccc(O)cc1)C(=O)N[C@@H](Cc1ccc(O)cc1)C(=O)N[C@@H](CC(N)=O)C(=O)N[C@@H](Cc1c[nH]c2ccccc12)C(=O)N[C@@H](CC(C)C)C(=O)N[C@H](C(=O)N[C@@H](CCCNC(=N)N)C(=O)N[C@@H](CCC(N)=O)C(=O)N[C@@H](CCCNC(=N)N)C(=O)N[C@@H](Cc1ccc(O)cc1)C(N)=O)[C@@H](C)O)C(C)C) [Compound 19] | 0.39
